Measured values reported in publication PMC9433928.
Read-outs that look alike come from different tables or passages of the source.

Columns and labels:
[1] = target: GFP10-tagged constitutively active CDC42 L61 mutant (UniProt P60953); assay: split reporter (BiFC, NanoBiT); tripartite split-GFP: GFP10-GTPase mutant and GFP11-tagged partner co-transfected in MRC5 cells stably expressing GFP1-9; fixed 20 h after transfection; percent of reconstituted GFP (rGFP) positive cells by flow cytometry
[2] = target: GFP10-tagged constitutively active RAC1 L61 mutant (UniProt P63000); assay: as above
[3] = target: GFP10-RHOA of the triSFP-RHOA reporter cells (UniProt P61586); assay: split reporter (BiFC, NanoBiT); intracellular competition in triSFP-RHOA cells (MRC5_GFP1-9 with doxycycline-induced GFP10-RHOA and GFP11-RBD); mCherry fusions transfected; rGFP fluorescence by flow cytometry in quartiles of mCherry expression
Chain of GFP10-RHOA of the triSFP-RHOA reporter cells (P61586 whole entry, the tested form may be a part): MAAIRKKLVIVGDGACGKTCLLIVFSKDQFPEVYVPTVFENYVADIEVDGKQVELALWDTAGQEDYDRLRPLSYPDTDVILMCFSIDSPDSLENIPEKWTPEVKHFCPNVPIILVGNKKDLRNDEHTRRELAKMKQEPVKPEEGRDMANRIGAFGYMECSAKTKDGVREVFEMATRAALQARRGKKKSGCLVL

[4] = target: GFP10-tagged constitutively active RHOA L63 mutant (UniProt P61586); assay: split reporter (BiFC, NanoBiT); tripartite split-GFP: GFP10-GTPase mutant and GFP11-tagged partner co-transfected in MRC5 cells stably expressing GFP1-9; fixed 20 h after transfection; percent of reconstituted GFP (rGFP) positive cells by flow cytometry
Chain of GFP10-tagged constitutively active RHOA L63 mutant (P61586 other isoform, or with tags, fused parts or gaps mutant): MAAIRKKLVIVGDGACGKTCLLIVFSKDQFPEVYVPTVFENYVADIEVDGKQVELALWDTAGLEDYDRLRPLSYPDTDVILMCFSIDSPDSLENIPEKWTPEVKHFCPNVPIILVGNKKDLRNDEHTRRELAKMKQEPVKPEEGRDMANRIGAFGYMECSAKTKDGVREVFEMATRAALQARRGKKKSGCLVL

[5] = target: GFP10-tagged constitutively active RHOA L63 mutant (UniProt P61586); assay: as above; remark: listed apart in the source

Chain of GFP11 tagged PAK-BD (domain or fragment) (Q13153 2-545): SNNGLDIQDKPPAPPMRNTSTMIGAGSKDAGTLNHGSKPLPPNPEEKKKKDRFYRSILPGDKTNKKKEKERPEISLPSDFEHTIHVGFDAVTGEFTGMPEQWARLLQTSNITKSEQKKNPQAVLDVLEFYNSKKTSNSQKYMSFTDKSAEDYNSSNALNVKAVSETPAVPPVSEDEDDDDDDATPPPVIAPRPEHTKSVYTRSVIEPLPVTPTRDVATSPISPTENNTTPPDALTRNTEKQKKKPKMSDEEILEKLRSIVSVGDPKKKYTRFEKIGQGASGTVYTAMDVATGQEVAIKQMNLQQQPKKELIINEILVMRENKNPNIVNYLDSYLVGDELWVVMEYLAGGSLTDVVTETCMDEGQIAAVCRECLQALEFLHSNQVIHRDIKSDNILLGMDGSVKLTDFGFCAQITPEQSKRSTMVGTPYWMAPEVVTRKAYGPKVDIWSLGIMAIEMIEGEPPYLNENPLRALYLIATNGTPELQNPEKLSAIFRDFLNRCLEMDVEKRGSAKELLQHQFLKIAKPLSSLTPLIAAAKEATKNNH
Chain of RHOTEKIN effector RHO Binding Domain (RBD) fused to a C-terminal GFP11 tag (domain or fragment) (Q8C6B2 whole entry, the tested form may be a part): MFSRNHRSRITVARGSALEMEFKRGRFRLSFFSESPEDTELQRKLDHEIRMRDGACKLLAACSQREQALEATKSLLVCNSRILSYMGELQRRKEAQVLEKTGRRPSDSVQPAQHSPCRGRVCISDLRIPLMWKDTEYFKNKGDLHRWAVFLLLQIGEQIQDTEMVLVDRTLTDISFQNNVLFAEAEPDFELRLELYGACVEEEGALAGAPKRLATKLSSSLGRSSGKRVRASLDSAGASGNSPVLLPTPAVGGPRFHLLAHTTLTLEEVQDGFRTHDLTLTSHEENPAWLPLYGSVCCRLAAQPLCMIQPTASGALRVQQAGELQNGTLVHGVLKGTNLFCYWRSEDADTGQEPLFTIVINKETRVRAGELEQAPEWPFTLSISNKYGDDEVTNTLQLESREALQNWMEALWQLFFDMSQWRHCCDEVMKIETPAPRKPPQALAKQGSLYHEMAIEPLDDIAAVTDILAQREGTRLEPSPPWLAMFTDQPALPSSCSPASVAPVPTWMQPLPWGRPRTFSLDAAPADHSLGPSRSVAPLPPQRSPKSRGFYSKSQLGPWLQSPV
Chain of GFP10-tagged constitutively active CDC42 L61 mutant (P60953 other isoform, or with tags, fused parts or gaps mutant): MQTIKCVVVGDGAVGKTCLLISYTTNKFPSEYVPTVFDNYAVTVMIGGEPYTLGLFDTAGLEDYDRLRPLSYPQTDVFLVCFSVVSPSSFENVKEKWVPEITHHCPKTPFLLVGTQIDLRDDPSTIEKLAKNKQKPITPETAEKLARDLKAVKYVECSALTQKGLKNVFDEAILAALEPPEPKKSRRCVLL

GFP11 tagged PAK-BD (domain or fragment)
percent rGFP positive cells [1]: 11.8% | percent rGFP positive cells [2]: 9.9%

RBD-mCherry (domain or fragment)
percent decrease of rGFP fluorescence (competition with GFP11-RBD) [3]: 20%

RHOTEKIN effector RHO Binding Domain (RBD) fused to a C-terminal GFP11 tag (domain or fragment)
percent rGFP positive cells [4]: 25% | percent rGFP positive cells [5]: 28%
